1 molecule from publication PMC8017197 (Frontiers in Immunology, 2021) can be followed below.

In the assay the target is T1, linear (M1)-tetraubiquitin (UniProt P0CG48 1-76; P0CG48 1-76; P0CG48 1-76; P0CG48 1-76).
T1 construct: ubiquitin, first of four units joined head to tail (Met1-linked); ubiquitin, second unit; ubiquitin, third unit; ubiquitin, fourth unit; Four ubiquitins on one chain, N-terminal Met1 linked to the C-terminus of the unit before; also called linear (M1)-linked tetraubiquitin; source: bought: Boston Biochem
T1 sequence (P0CG48 1-304, one chain of several): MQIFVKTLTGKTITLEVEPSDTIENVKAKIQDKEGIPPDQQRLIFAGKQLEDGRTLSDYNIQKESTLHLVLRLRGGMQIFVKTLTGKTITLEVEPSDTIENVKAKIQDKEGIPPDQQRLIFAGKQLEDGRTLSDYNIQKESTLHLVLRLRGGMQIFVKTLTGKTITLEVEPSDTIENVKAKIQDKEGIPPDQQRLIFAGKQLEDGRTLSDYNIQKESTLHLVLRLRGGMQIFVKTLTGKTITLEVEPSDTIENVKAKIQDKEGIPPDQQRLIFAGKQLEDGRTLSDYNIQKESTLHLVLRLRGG
The assay can be described thus: pull-down; GST-fusion proteins with tetraubiquitin (3.4 μg), then glutathione Sepharose at 4°C 1 h; bound ubiquitin detected by anti-ubiquitin immunoblotting. Conditions: both partners purified.

B1: GST-fused UBZ domain (a.a. 394-446) of NDP52 (domain or fragment, human, UniProt Q13137 394-446, looked up)
chain: IKKCPICKADDICDHTLEQQQMQPLCFNCPICDKIFPATEKQIFEDHVFCHSL
notes: NDP52 (CALCOCO2), human, UBZ domain, a.a; Vector pGEX6p-1; also called GST-fused NDP52-UBZ domain; source: E. coli BL21 (DE3)pLysS, purified with a GSTrap column
B1: the binding result is reported as “binds”.
